Laboratory results as given in patent US20240174727A1, “LONG-ACTING NATRIURETIC PEPTIDES AND USES THEREOF” (Eli Lilly and Company, priority 2022, published 2024).
Substitutions are numbered along the chain they refer to.

T1: human NPRA (human, UniProt P16066 33-1061)
T1 sequence (looked up): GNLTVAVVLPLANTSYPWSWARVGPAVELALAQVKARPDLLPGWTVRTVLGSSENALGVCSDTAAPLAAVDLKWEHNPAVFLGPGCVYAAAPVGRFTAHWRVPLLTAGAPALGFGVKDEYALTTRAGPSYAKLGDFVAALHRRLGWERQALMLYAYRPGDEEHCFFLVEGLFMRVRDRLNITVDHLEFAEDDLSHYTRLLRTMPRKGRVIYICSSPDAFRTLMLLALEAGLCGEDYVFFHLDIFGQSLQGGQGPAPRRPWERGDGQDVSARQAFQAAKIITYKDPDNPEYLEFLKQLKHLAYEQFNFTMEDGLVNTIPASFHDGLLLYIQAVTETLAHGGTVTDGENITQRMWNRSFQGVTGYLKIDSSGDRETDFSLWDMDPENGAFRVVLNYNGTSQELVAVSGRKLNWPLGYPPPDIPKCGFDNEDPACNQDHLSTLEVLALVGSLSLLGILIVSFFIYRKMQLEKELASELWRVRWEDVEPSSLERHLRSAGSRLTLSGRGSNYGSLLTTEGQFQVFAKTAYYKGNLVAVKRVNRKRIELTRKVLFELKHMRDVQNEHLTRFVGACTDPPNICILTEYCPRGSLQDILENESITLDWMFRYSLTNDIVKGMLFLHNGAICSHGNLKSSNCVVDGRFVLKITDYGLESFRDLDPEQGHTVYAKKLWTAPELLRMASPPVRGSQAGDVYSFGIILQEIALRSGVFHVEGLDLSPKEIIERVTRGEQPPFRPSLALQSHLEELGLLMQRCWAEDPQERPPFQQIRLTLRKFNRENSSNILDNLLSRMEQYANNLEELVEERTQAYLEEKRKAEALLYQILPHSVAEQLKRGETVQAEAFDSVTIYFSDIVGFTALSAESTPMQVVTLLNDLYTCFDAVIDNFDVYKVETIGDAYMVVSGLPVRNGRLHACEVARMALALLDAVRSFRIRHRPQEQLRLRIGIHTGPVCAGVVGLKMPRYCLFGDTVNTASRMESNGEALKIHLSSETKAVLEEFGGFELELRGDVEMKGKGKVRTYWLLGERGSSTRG

B1: Example 23 (peptide)
peptide: XEKEKEKGSXRRSSCFGGRIDRIGAQSGLGCPSFRXGGPSSGAPPPS
modifications: HOOC-(CH2)18-CO-(γGlu)-EKEKEKGS-4Pal-RRSS[CFGGRIDRIGAQSGLGC]PSFR-4Pal-GGPSSGAPPPS-NH2; disulfide linkage between the bracketed Cys
B2: Example 35 (peptide)
peptide: B1 peptide with R11K, A25H, X36H
modifications: HOOC-(CH2)18-CO-(γGlu)-EKEKEKGS-4Pal-KRSS[CFGGRIDRIGHQSGLGC]PSFRHGGPSSGAPPPS-NH2; disulfide linkage between the bracketed Cys
B3: Example 36 (peptide)
peptide: B1 peptide with R19K, A25H, X36H
modifications: HOOC-(CH2)18-CO-(γGlu)-EKEKEKGS-4Pal-RRSS[CFGGKIDRIGHQSGLGC]PSFRHGGPSSGAPPPS-NH2; disulfide linkage between the bracketed Cys

Target: T1, human NPRA
Assay: cell-based or functional assay

Row | Binder | cGMP Assay (EC50, pM) w/Casein [pM]
1 | B1 | 3490
2 | B2 | 118
3 | B3 | 118
